Test results as given in US7105305.

Target: type B human PDGF receptor (B-hPDGF-R) on transfected CHO cells (CHO-HR5) (human) (UniProt P09619)
Experiment: whole-cell 125I-PDGF binding, 37 C for 45 min, Ficoll gradient; non-specific binding taken from CHO cells

Sequence of type B human PDGF receptor (B-hPDGF-R) on transfected CHO cells (CHO-HR5) (human) (P09619 33-1106 E241D): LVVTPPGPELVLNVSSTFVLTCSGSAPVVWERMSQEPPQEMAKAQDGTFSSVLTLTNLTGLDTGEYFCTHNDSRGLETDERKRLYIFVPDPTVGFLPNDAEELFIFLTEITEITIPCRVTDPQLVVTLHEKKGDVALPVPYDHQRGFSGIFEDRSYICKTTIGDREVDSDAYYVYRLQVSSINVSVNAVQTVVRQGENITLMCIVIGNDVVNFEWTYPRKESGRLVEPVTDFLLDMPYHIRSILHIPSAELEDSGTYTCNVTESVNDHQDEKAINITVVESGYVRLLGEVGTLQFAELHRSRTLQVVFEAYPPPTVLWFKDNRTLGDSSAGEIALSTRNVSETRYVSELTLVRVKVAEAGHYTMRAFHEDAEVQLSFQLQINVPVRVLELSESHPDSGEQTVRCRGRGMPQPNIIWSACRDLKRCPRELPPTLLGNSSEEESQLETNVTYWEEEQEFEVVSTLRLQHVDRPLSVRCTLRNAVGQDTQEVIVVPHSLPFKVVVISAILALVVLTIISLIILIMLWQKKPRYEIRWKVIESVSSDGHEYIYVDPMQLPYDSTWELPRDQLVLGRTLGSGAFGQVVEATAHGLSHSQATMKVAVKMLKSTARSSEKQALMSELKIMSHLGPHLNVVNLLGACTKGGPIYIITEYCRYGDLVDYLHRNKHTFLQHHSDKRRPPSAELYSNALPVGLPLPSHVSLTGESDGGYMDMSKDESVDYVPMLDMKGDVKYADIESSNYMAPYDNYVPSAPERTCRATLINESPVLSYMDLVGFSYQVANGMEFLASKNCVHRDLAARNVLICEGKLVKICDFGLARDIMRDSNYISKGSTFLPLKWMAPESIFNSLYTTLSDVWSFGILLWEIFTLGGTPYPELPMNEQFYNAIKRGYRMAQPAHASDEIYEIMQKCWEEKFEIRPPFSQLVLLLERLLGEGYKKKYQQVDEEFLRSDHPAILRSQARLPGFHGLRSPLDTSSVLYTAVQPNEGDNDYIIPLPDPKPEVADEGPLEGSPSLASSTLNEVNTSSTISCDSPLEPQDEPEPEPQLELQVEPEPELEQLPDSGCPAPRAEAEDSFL

- non-specific binding as percent of the bound radioactivity: 25 percent
Substance: ^125I-labeled PDGF (ligand)
